Assays:
[1] = biological target: T1, PSMA胞外区蛋白 (重组表达的前列腺特异性膜抗原膜外区) (UniProt Q04609 44-750); assay: indirect phage ELISA, PSMA extracellular domain coated at 5 μg/mL, HRP-anti-M13 detection
T1 construct: extracellular domain; also called PSMA蛋白; PSMA抗原; not shown: His tag from vector pRAG2a (HisTrap purification, detected with His antibody)

[2] = biological target: T2, 前列腺特异性膜抗原 (PSMA) on LNCaP cells (UniProt Q04609 1-750, limits assumed); assay: cell ELISA (HRP-anti-M13, OD450) and immunofluorescence on fixed LNCaP cells (PSMA+) against MKN45 cells (PSMA-)
T2 construct: whole, on cells; Cells were fixed with 4% paraformaldehyde before the assay; also called prostate specific membrane antigen
T2 sequence (Q04609 whole entry): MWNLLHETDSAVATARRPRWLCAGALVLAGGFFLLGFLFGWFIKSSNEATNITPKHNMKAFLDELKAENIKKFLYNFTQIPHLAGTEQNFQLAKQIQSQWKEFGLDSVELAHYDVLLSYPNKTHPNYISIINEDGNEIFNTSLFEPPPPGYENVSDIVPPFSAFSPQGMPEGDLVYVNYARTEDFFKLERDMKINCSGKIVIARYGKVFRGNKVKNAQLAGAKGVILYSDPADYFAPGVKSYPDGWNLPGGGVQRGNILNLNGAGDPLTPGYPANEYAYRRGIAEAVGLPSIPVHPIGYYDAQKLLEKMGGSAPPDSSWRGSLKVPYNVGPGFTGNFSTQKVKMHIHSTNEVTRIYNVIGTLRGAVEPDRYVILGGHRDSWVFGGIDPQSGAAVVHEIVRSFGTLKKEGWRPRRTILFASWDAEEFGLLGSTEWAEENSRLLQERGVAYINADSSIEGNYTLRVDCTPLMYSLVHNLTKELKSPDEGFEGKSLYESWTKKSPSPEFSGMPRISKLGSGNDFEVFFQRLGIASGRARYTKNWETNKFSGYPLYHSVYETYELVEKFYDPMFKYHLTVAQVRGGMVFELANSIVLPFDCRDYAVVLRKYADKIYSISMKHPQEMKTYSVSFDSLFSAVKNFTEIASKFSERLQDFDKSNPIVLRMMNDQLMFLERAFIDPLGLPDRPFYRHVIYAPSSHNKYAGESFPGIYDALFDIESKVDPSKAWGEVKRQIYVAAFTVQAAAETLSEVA

T1 sequence (Q04609 44-750): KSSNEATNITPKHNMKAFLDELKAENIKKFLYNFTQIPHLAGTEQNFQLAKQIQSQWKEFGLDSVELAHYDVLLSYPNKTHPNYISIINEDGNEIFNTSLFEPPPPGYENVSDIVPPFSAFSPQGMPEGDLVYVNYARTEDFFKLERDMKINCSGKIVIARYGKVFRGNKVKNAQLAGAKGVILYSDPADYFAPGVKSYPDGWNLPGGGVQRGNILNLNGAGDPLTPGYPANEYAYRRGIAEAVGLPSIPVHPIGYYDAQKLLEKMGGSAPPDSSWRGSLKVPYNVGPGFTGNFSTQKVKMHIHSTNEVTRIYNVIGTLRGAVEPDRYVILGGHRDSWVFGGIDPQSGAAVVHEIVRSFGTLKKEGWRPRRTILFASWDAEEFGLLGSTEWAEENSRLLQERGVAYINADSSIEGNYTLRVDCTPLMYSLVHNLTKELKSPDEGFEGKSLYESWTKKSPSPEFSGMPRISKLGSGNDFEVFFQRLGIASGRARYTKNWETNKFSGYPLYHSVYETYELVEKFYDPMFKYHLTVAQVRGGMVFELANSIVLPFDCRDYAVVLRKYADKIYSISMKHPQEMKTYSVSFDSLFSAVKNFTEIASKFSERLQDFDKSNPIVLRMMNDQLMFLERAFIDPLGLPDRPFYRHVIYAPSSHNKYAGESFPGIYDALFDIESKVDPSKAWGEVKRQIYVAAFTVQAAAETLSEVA

B1: 抗前列腺特异性膜抗原单域重链抗体噬菌体阳性克隆 (VHH, not shown: large carriers)
VHH: QLQLVESGGGLVQAGGSLRLSCVVSGRPFSRYTMGWFRQAPGKERELVATIWRRGNTYYANYADAVTGRFTISRDNAKNTAYLQMNSLELEDTAIYYCAAGRTSWGQNPSEYGYWGQGTQVTVSS
notes: also called 针对前列腺特异性膜抗原的单域重链抗体阳性克隆; 展示本发明所述纳米抗体的噬菌体克隆
B1: binds [1]; binds [2].
